T1: TRAF3 (Homo sapiens, UniProt Q13114)
T1 construct: expressed in transfected cells; host or cells: 293 human embryonic kidney cells
T1 sequence (Q13114 1-568): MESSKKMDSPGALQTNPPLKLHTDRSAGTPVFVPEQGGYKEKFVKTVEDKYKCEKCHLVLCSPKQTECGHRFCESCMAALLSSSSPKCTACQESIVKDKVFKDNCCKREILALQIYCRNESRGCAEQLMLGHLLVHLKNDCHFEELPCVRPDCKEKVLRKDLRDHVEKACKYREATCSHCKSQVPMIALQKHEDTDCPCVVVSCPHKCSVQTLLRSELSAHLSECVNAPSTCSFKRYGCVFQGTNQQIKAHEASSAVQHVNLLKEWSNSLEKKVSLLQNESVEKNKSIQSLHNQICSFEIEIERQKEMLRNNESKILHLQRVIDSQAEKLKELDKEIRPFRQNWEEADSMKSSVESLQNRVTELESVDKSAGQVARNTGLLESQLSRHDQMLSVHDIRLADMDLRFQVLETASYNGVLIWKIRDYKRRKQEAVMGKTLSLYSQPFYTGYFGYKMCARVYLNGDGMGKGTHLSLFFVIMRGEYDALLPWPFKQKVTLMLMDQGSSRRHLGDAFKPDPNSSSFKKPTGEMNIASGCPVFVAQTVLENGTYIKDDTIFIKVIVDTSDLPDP


Legend:
[1] = tested on: TRAF2; assay: Coimmunoprecipitation with HA-tagged TRAF2 in 293 cells; assay type: binding, human
Description: (§1) The interaction of IKK-α with NIK was confirmed in mammalian cell coimmunoprecipitation assays. Human IKK-α containing an N-terminal Flag epitope tag was transiently coexpressed in 293 human embryonic kidney cells with Myc epitope-tagged NIK or HA epitope-tagged TRAF proteins. Cell lysates were immunoprecipitated using a monoclonal antibody against the Flag epitope, and coprecipitating NIK or TRAF proteins were detected by immunoblot analysis with an anti-Myc or anti-HA monoclonal antibodies.

[2] = tested on: NF-κB-dependent reporter gene; assay: NF-κB-dependent reporter gene assay, 293 cells; assay type: cell-based, human; conditions: overexpression in 293 cells
Description: (§2) To investigate a possible role for IKK-α in NF-κB activation, we examined if transient overexpression of IKK-α might activate an NF-κB-dependent reporter gene. An E-selectin-luciferase reporter construct (Schindler and Baichwal, 1994) and a IKK-α expression vector were cotransfected into HeLa cells. IKK-α expression activated the reporter gene in a dose-dependent manner, with a maximal induction of luciferase activity of about 6 to 7-fold compared to vector control. Similar results were obtained in 293 cells, where IKK-α overexpression induced reporter gene activity approximately 4-fold. […] Thus, IKK-α induces NF-κB activation when overexpressed.
Overexpression of IKK-α(307-745) blocked TNF- and IL-1-induced reporter gene activation similar to overexpression of NIK(624-947). IKK-α(307-745) was also found to inhibited NF-κB-dependent reporter gene activity elicited by overexpression of TRAF2, TRAF6 and NIK.

[3] = tested on: NF-κB-dependent reporter gene; assay: E-selectin-luciferase NF-κB-dependent reporter gene assay, HeLa cells; assay type: cell-based, human; conditions: transient overexpression in HeLa cells, compared to vector control
Description: as §2

[4] = molecular target: T1, TRAF3; assay: Coimmunoprecipitation with HA-tagged TRAF3 in 293 cells; assay type: binding; conditions: Flag-tagged protein coexpressed with HA-TRAF3
Description: as §1

[5] = molecular target: T2, NIK (Homo sapiens, UniProt Q99558); assay: Coimmunoprecipitation with Myc-tagged NIK in 293 cells; assay type: binding; conditions: Flag-tagged protein coexpressed with Myc-NIK, anti-Flag immunoprecipitation
T2 construct: expressed in transfected cells; host or cells: 293 human embryonic kidney cells
T2 sequence (Q99558 whole entry): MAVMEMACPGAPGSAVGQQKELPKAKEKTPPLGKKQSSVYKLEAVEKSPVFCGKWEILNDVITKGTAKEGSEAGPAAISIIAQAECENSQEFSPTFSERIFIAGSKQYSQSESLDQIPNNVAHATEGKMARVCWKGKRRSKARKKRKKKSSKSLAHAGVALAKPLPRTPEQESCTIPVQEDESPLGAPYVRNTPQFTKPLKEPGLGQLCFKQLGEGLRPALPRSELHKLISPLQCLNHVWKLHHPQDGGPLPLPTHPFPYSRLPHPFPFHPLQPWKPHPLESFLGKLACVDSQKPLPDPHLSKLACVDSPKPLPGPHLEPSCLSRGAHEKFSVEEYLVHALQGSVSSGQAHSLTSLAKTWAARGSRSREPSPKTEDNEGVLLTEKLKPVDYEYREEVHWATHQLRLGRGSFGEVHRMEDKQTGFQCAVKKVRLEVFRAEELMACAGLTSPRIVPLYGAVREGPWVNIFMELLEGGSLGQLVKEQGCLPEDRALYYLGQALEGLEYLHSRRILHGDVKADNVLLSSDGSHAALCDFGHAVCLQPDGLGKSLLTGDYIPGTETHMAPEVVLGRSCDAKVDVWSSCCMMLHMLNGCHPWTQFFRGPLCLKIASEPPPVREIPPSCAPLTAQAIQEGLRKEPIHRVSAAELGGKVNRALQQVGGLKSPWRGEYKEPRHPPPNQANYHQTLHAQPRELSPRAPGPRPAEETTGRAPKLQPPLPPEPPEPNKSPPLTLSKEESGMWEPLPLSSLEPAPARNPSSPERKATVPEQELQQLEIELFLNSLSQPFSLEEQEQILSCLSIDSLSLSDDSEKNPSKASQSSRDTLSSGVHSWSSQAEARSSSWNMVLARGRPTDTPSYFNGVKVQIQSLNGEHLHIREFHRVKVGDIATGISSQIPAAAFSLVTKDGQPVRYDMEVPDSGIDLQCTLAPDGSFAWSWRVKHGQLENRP
Description: as §1

Row | Molecule | association with TRAF2 ([1]; Flag-tagged protein coexpressed with HA-TRAF2, without NIK) | coprecipitation of TRAF2 when NIK coexpressed ([1]; NIK coexpressed with IKK-α and TRAF2) | induced reporter gene activity [2] | maximal induction of luciferase activity [3] [fold] | association with TRAF3 [4] | coprecipitation / association with NIK [5] | NF-κB-dependent reporter gene activity elicited by overexpression of TRAF2, TRAF6 and NIK [2] | TNF- and IL-1-induced reporter gene activation [2]
1 | IKK-α: novel human IκB kinase, full conceptual translate SEQ ID NO:4 (protein) MERPPGLRPGAGGPWEMRERLGTGGFGNVCLYQHRELDLKIAIKSCRLELSTKNRERWCHEIQIMKKLNHANVVKACDVPEELNILIHDVPLLAMEYCSGGDLRKLLNKPENCCGLKESQILSLLSDIGSGIRYLHENKIIHRDLKPENIVLQDVGGKIIHKIIDLGYAKDVDQGSLCTSFVGTLQYLAPELFENKPYTATVDYWSFGTMVFECIAGYRPFLHHLQPFTWHEKIKKKDPKCIFACEEMSGEVRFSSHLPQPNSLCSLIVEPMENWLQLMLNWDPQQRGGPVDLTLKQPRCFVLMDHILNLKIVHILNMTSAKIISFLLPPDESLHSLQSRIERETGINTGSQELLSETGISLDPRKPASQCVLDGVRGCDSYMVYLFDKSKTVYEGPFASRSLSDCVNYIVQDSKIQLPIIQLRKVWAEAVHYVSGLKEDYSRLFQGQRAAMLSLLRYNANLTKMKNTLISASQQLKAKLEFFHKSIQLDLERYSEQMTYGISSEKMLKAWKEMEEKAIHYAEVGVIGYLEDQIMSLHAEIMELQKSPYGRRQGDLMESLEQRAIDLYKQLKHRPSDHSYSDSTEMVKIIVHTVQSQDRVLKELFGHLSKLLGCKQKIIDLLPKVEVALSNIKEADNTVMFMQGKRQKEIWHLLKIACTQSSARSLVGSSLEGAVTPQTSAWLPPTSAEHDHSLSCVVTPQDGETSAQMIEENLNCLGHLSTIIHEANEEQGNSMMNLDWSWLTE | failed to associate | strong coprecipitation | approximately 4 fold | 6 to 7 | failed to associate | able to coprecipitate NIK |  | 
2 | IKK-α(307-745): deletion mutant IKK-α protein lacking most of the N-terminal kinase domain; kinase-inactive (protein) ILNLKIVHILNMTSAKIISFLLPPDESLHSLQSRIERETGINTGSQELLSETGISLDPRKPASQCVLDGVRGCDSYMVYLFDKSKTVYEGPFASRSLSDCVNYIVQDSKIQLPIIQLRKVWAEAVHYVSGLKEDYSRLFQGQRAAMLSLLRYNANLTKMKNTLISASQQLKAKLEFFHKSIQLDLERYSEQMTYGISSEKMLKAWKEMEEKAIHYAEVGVIGYLEDQIMSLHAEIMELQKSPYGRRQGDLMESLEQRAIDLYKQLKHRPSDHSYSDSTEMVKIIVHTVQSQDRVLKELFGHLSKLLGCKQKIIDLLPKVEVALSNIKEADNTVMFMQGKRQKEIWHLLKIACTQSSARSLVGSSLEGAVTPQTSAWLPPTSAEHDHSLSCVVTPQDGETSAQMIEENLNCLGHLSTIIHEANEEQGNSMMNLDWSWLTE |  |  |  |  |  | able to associate with NIK | inhibited | blocked
3 | NIK(624-947): kinase-inactive mutant of NIK comprising its TRAF2-interacting C-terminal domain (protein, UniProt Q99558 624-947, looked up, fragment) PLTAQAIQEGLRKEPIHRVSAAELGGKVNRALQQVGGLKSPWRGEYKEPRHPPPNQANYHQTLHAQPRELSPRAPGPRPAEETTGRAPKLQPPLPPEPPEPNKSPPLTLSKEESGMWEPLPLSSLEPAPARNPSSPERKATVPEQELQQLEIELFLNSLSQPFSLEEQEQILSCLSIDSLSLSDDSEKNPSKASQSSRDTLSSGVHSWSSQAEARSSSWNMVLARGRPTDTPSYFNGVKVQIQSLNGEHLHIREFHRVKVGDIATGISSQIPAAAFSLVTKDGQPVRYDMEVPDSGIDLQCTLAPDGSFAWSWRVKHGQLENRP |  |  |  |  |  |  |  | blocked
